# Test results taken from US20200199241A1 (Chugai, published 2020).
# Changes are numbered by the printed parent chain. Names and notes keep the numbering of the source.
# B1: IgG1-F552 (antibody)
# heavy: QVQLQESGPGLVKPSETLSLTCAVSGHSISHDHAWSWVRQPPGEGLEWIGFISYSGITNYNPSLQGRVTISRDNSKNTLYLQMNSLRAEDTAVYYCARSLARTTAMDYWGEGTLVTVSSASTKGPSVFPLAPSSKSTSGGTAALGCLVKDYFPEPVTVSWNSGALTSGVHTFPAVLQSSGLYSLSSVVTVPSSSLGTQTYICNVNHKPSNTKVDKKVEPKSCDKTHTCPPCPAPELLGGPSVFLFPPKPKDYLMISRTVEVTCVVVDVSHEDPEVKFNWYVDGVEVHNAKTKPREEQYNSTYRVVSVLQVLHQDWLNGKEYKCKVSNKALPAPIEKTISKAKGQPREPQVYTLPPSRDELTKNQVSLTCLVKGFYPSDIAVEWESNGQPENNYKTTPPVLDSDGSFFLYSKLTVDKSRWQQGNVFSCSVLHEALHYHYTQKSLSLSP
# light: not shown
# notes: EU numbering; 'N428L' as printed, probably M428L; copies: 2 + 2
# B2: IgG1-F636 (antibody)
# heavy: B1 heavy with S241K, Y252T, M254Y, V259P, V286K, Q309T, V310P, L430M
# light: not shown
# notes: EU numbering; copies: 2 + 2
# B3: IgG1-F568 (antibody)
# heavy: B1 heavy with Y252T, M254Y, T258E, V259P, Q309A, Q313H, L430M
# light: not shown
# notes: EU numbering; copies: 2 + 2
# B4: IgG1-F629 (antibody)
# heavy: B1 heavy with Y252T, M254Y, V259P, V281L, Q309T, V310P, L430M
# light: not shown
# notes: EU numbering; copies: 2 + 2
# B5: IgG1-F583 (antibody)
# heavy: B1 heavy with S241K, Y252T, M254Y, V259P, Q309T, V310P, E384A, L430M, Y436N
# light: not shown
# notes: EU numbering; copies: 2 + 2
# B6: IgG1-F621 (antibody)
# heavy: B1 heavy with S241K, Y252T, M254Y, V259P, Q309A, Q313H, L430M
# light: not shown
# notes: EU numbering; copies: 2 + 2
# B7: IgG1-F623 (antibody)
# heavy: B1 heavy with S241K, Y252T, M254W, V259P, Q309T, L430M, Y436W
# light: not shown
# notes: EU numbering; copies: 2 + 2
# B8: IgG1-F600 (antibody)
# heavy: B1 heavy with Y252T, M254Y, T258Q, V259P, Q309T, E384A, L430M
# light: not shown
# notes: EU numbering; copies: 2 + 2
# B9: IgG1-F561 (antibody)
# heavy: B1 heavy with Y252T, M254Y, S256T, V259P, Q309A, L430M
# light: not shown
# notes: EU numbering; copies: 2 + 2
# B10: IgG1-F612 (antibody)
# heavy: B1 heavy with Y252T, M254Y, V259P, Q309P, V310I, L311A, L430M
# light: not shown
# notes: EU numbering; copies: 2 + 2
# B11: IgG1-F572 (antibody)
# heavy: B1 heavy with Y252T, M254Y, V259P, Q309A, Q313H, L430I
# light: not shown
# notes: EU numbering; copies: 2 + 2
# B12: IgG1-F599 (antibody)
# heavy: B1 heavy with Y252T, M254Y, V259P, Q309T, P389E, L430Y
# light: not shown
# notes: EU numbering; copies: 2 + 2
# B13: IgG1-F566 (antibody)
# heavy: B1 heavy with Y252T, M254Y, S256T, V259P, Q313A, L430M
# light: not shown
# notes: EU numbering; copies: 2 + 2
# B14: IgG1-F553 (antibody)
# heavy: B1 heavy with Y252T, M254Y, V259P, Q309T, Q313A, L430M
# light: not shown
# notes: EU numbering; copies: 2 + 2
# B15: IgG1-F634 (antibody)
# heavy: B1 heavy with S241K, Y252T, M254Y, V259P, V284D, Q309T, V310P, L430M
# light: not shown
# notes: EU numbering; copies: 2 + 2
# B16: IgG1-F556 (antibody)
# heavy: B1 heavy with Y252T, M254Y, V259P, Q313A, L430M, Y436N
# light: not shown
# notes: EU numbering; copies: 2 + 2
# B17: IgG1-F637 (antibody)
# heavy: B1 heavy with Y252T, M254Y, V259P, K290S, Q309T, V310P, L430M
# light: not shown
# notes: EU numbering; copies: 2 + 2
# B18: IgG1-F598 (antibody)
# heavy: B1 heavy with Y252T, M254Y, V259P, Q309T, D314A, P389E, L430M
# light: not shown
# notes: EU numbering; copies: 2 + 2
# B19: IgG1-F560 (antibody)
# heavy: B1 heavy with Y252T, M254Y, S256T, V259P, Q309T, V310P, L430M
# light: not shown
# notes: EU numbering; copies: 2 + 2
# B20: IgG1-F601 (antibody)
# heavy: B1 heavy with Y252T, M254Y, V259P, N288E, Q309T, V310P, L430M
# light: not shown
# notes: EU numbering; copies: 2 + 2
# B21: IgG1-F611 (antibody)
# heavy: B1 heavy with Y252T, M254Y, V259P, V307T, Q309P, V310I, L311A, L430M
# light: not shown
# notes: EU numbering; copies: 2 + 2
# B22: IgG1-F569 (antibody)
# heavy: B1 heavy with Y252T, M254Y, T258Q, V259P, Q309A, Q313H, L430M
# light: not shown
# notes: EU numbering; copies: 2 + 2
# B23: IgG1-F581 (antibody)
# heavy: B1 heavy with Y252T, M254Y, T258E, V259P, N288E, Q309T, L430M
# light: not shown
# notes: EU numbering; copies: 2 + 2
# B24: IgG1-F630 (antibody)
# heavy: B1 heavy with S241K, Y252T, M254Y, V259P, V281L, Q309T, V310P, L430M
# light: not shown
# notes: EU numbering; copies: 2 + 2
# B25: IgG1-F587 (antibody)
# heavy: B1 heavy with Y252T, M254Y, V259P, N288E, Q309T
# light: not shown
# notes: EU numbering; copies: 2 + 2
# B26: IgG1-F595 (antibody)
# heavy: B1 heavy with S241K, Y252T, M254Y, V259P, Q309T, L430I
# light: not shown
# notes: EU numbering; copies: 2 + 2
# B27: IgG1-F563 (antibody)
# heavy: B1 heavy with Y252T, M254Y, S256T, V259P, Q309T, Q313A, L430M
# light: not shown
# notes: EU numbering; copies: 2 + 2
# B28: IgG1-F564 (antibody)
# heavy: B1 heavy with Y252T, M254Y, S256T, V259P, Q309T, Q313H, L430M
# light: not shown
# notes: EU numbering; copies: 2 + 2
# B29: IgG1-F633 (antibody)
# heavy: B1 heavy with Y252T, M254Y, V259P, V284D, Q309T, V310P, L430M
# light: not shown
# notes: EU numbering; copies: 2 + 2
# B30: IgG1-F585 (antibody)
# heavy: B1 heavy with S241K, Y252T, M254Y, V259P, N288E, Q309T, V310P, L430M, Y436N
# light: not shown
# notes: EU numbering; copies: 2 + 2
# B31: IgG1-F577 (antibody)
# heavy: B1 heavy with Y252T, M254Y, V259P, N288E, Q309A, Q313A, L430M, Y436N
# light: not shown
# notes: EU numbering; copies: 2 + 2
# B32: IgG1-F578 (antibody)
# heavy: B1 heavy with Y252T, M254Y, V259P, N288E, Q313A, L430M, Y436N
# light: not shown
# notes: EU numbering; copies: 2 + 2
# B33: IgG1-F565 (antibody)
# heavy: B1 heavy with Y252T, M254Y, S256T, V259P, Q309A, Q313A, L430M
# light: not shown
# notes: EU numbering; copies: 2 + 2
# B34: IgG1-F635 (antibody)
# heavy: B1 heavy with Y252T, M254Y, V259P, V286K, Q309T, V310P, L430M
# light: not shown
# notes: EU numbering; copies: 2 + 2
# B35: IgG1-F597 (antibody)
# heavy: B1 heavy with Y252T, M254Y, V259P, Q309T, E384A, P389E, L430M
# light: not shown
# notes: EU numbering; copies: 2 + 2
# B36: IgG1-F620 (antibody)
# heavy: B1 heavy with S241K, Y252T, M254Y, S256T, V259P, Q309T, L430M
# light: not shown
# notes: EU numbering; copies: 2 + 2
# B37: IgG1-F594 (antibody)
# heavy: B1 heavy with S241K, Y252T, M254Y, T258E, V259P, Q309T, V310P, L430I
# light: not shown
# notes: EU numbering; copies: 2 + 2
# B38: IgG1-F559 (antibody)
# heavy: B1 heavy with Y252T, M254Y, S256T, V259P, N288E, Q309T, L430M
# light: not shown
# notes: EU numbering; copies: 2 + 2
# B39: IgG1-F625 (antibody)
# heavy: B1 heavy with S241K, Y252T, V259A
# light: not shown
# notes: EU numbering; copies: 2 + 2
# B40: IgG1-F584 (antibody)
# heavy: B1 heavy with S241K, Y252T, M254Y, T258E, V259P, Q309T, V310P, L430M, Y436N
# light: not shown
# notes: EU numbering; copies: 2 + 2
# B41: IgG1-F582 (antibody)
# heavy: B1 heavy with S241K, Y252T, M254Y, V259P, Q309T, V310P, L430M, Y436N
# light: not shown
# notes: EU numbering; copies: 2 + 2
# B42: IgG1-F619 (antibody)
# heavy: B1 heavy with S241K, Y252T, M254Y, V259P, Q309T, L430M
# light: not shown
# notes: EU numbering; copies: 2 + 2
# B43: IgG1-F571 (antibody)
# heavy: B1 heavy with Y252T, M254Y, V259P, N288E, Q309A, Q313H, L430M
# light: not shown
# notes: EU numbering; copies: 2 + 2
# B44: IgG1-F624 (antibody)
# heavy: B1 heavy with S241K, Y252T, V259A, N288E
# light: not shown
# notes: EU numbering; copies: 2 + 2
# B45: IgG1-F570 (antibody)
# heavy: B1 heavy with Y252T, M254Y, S256T, V259P, Q309A, Q313H, L430M
# light: not shown
# notes: EU numbering; copies: 2 + 2
# B46: IgG1-F622 (antibody)
# heavy: B1 heavy with S241K, Y252T, M254Y, T258Q, V259P, Q309T, L430M
# light: not shown
# notes: EU numbering; copies: 2 + 2
# B47: IgG1-F576 (antibody)
# heavy: B1 heavy with Y252T, M254Y, T258E, V259P, Q313H, L430M, Y436N
# light: not shown
# notes: EU numbering; copies: 2 + 2
# B48: IgG1-F586 (antibody)
# heavy: B1 heavy with S241K, Y252T, M254Y, V259P, N288E, Q309T, V310P, L430I, Y436N
# light: not shown
# notes: EU numbering; copies: 2 + 2
# B49: IgG1-F567 (antibody)
# heavy: B1 heavy with Y252T, M254Y, S256T, V259P, Q309T, L430I
# light: not shown
# notes: EU numbering; copies: 2 + 2
# B50: IgG1-F592 (antibody)
# heavy: B1 heavy with Y252T, M254Y, S256T, V259P, Q309T, E384A, L430M
# light: not shown
# notes: EU numbering; copies: 2 + 2
# B51: IgG1-F580 (antibody)
# heavy: B1 heavy with Y252T, M254Y, V259P, N288E, Q313H, L430M, Y436N
# light: not shown
# notes: EU numbering; copies: 2 + 2
# B52: IgG1-F618 (antibody)
# heavy: B1 heavy with S241K, Y252T, V259P, Q309T, V310F, L430M
# light: not shown
# notes: EU numbering; copies: 2 + 2
# B53: IgG1-F596 (antibody)
# heavy: B1 heavy with Y252T, M254Y, V259P, Q309T, D314A, E384A, L430Y
# light: not shown
# notes: EU numbering; copies: 2 + 2
# B54: IgG1-F593 (antibody)
# heavy: B1 heavy with S241K, Y252T, M254Y, S256T, V259P, Q309T, V310P, L430I
# light: not shown
# notes: EU numbering; copies: 2 + 2
# B55: IgG1-F562 (antibody)
# heavy: B1 heavy with Y252T, M254Y, S256T, V259P, L430M
# light: not shown
# notes: EU numbering; copies: 2 + 2
# Target: T1, human FcRn (soluble human FcRn complexed with β2-microglobulin) (human, UniProt P61769 21-119, limits assumed)
# T1 construct: also called hFcRn
# Assay: SPR, pH 7.0;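 also: antibodies captured on a Protein L sensor chip with human FcRn injected as analyte, KD calculated from fitted association and dissociation rate constants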
# T1 sequence (chain, as listed by the source limits assumed, chain 1 of 2): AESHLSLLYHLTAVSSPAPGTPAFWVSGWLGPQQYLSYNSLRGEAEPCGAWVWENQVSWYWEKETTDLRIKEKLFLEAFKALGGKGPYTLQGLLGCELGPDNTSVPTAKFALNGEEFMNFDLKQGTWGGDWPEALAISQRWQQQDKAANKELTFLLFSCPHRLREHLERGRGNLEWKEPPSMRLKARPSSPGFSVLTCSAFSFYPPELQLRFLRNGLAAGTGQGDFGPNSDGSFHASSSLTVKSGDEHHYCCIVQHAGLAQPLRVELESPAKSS
# T1 sequence (P61769 21-119 limits assumed, chain 2 of 2): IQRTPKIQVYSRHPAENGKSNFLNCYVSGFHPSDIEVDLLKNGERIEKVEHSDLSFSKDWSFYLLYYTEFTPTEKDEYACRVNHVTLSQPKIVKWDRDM
row,Binder,Kd
1,B1,110 nM
2,B2,48 nM
3,B3,110 nM
4,B4,39 nM
5,B5,780 nM
6,B6,150 nM
7,B7,180 nM
8,B8,280 nM
9,B9,140 nM
10,B10,360 nM
11,B11,100 nM
12,B12,520 nM
13,B13,61 nM
14,B14,170 nM
15,B15,32 nM
16,B16,1500 nM
17,B17,150 nM
18,B18,140 nM
19,B19,28 nM
20,B20,9.6 nM
21,B21,280 nM
22,B22,200 nM
23,B23,72 nM
24,B24,37 nM
25,B25,190 nM
26,B26,180 nM
27,B27,130 nM
28,B28,190 nM

row,Binder,Kd
1,B29,24 nM
2,B30,290 nM
3,B31,1300 nM
4,B32,570 nM
5,B33,92 nM
6,B34,45 nM
7,B35,220 nM
8,B36,210 nM
9,B37,16 nM
10,B38,80 nM
11,B39,76 nM
12,B40,630 nM
13,B41,750 nM
14,B42,310 nM
15,B43,81 nM
16,B44,14 nM
17,B45,130 nM
18,B46,350 nM
19,B47,1600 nM
20,B48,140 nM
21,B49,220 nM
22,B50,200 nM
23,B51,860 nM
24,B52,640 nM
25,B53,400 nM
26,B54,31 nM
27,B55,83 nM
